B1: T-lymphocyte activation antigen CD80 (Mus musculus), Q00609 (parent)
chain: MACNCQLMQDTPLLKFPCPRLILLFVLLIRLSQVSSDVDEQLSKSVKDKVLLPCRYNSPHEDESEDRIYWQKHDKVVLSVIAGKLKVWPEYKNRTLYDNTTYSLIILGLVLSDRGTYSCVVQKKERGTYEVKHLALVKLSIKADFSTPNITESGNPSADTKRITCFASGGFPKPRFSWLENGRELPGINTTISQDPESELYTISSQLDFNTTRNHTIKCLIKYGDAHVSEDFTWEKPPEDPPDSKNTLVLFGAGFGAVITVVVIVVIIKCFCKHRSCFRRNEASRETNNSLTFGPEEALAEQTVFL

Variants of: B1
Conditions: with pd1l1_mouse Cd274, Q9EP73
Chain of pd1l1_mouse Cd274, Q9EP73 (Q9EP73 whole entry): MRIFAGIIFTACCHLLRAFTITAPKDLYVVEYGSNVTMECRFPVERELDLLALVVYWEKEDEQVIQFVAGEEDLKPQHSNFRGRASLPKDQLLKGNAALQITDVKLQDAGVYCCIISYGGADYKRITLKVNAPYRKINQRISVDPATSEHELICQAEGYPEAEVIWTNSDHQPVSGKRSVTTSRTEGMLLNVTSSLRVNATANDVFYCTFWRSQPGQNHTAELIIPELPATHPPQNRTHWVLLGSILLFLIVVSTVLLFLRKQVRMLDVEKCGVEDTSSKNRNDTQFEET

| effect of a mutation on the interaction | Variant |
| --- | --- |
| disrupting interaction strength | L107E |
